The target of assay [1] is tau RD(P301S)-mCerulean3 fusion (tau segment 246 to 378 with the P301S mutation, linker …, mCerulean3) (UniProt P10636). The assay can be described thus: cell-based or functional assay.
For assay [2], the target named is tau RD(P301S)-mClover3 fusion (tau segment 246 to 378 with the P301S mutation, linker …, mClover3) (UniProt P10636). The assay can be described thus: cell-based or functional assay.
Sequence of tau RD(P301S)-mClover3 fusion (tau segment 246 to 378 with the P301S mutation, linker …, mClover3) (P10636 other isoform, or with tags, fused parts or gaps P301S P301S P301S P301S): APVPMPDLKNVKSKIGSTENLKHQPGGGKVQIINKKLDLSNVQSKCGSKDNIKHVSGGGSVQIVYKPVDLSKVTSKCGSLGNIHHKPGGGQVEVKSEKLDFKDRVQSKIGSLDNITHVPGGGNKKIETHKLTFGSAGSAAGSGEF

Sequence of tau RD(P301S)-mCerulean3 fusion (tau segment 246 to 378 with the P301S mutation, linker …, mCerulean3) (P10636 other isoform, or with tags, fused parts or gaps P301S P301S P301S P301S): as above

Take “recombinant tau fibrils made of wild-type full-length (2N4R) tau (from UniProt P10636 2-441)”: the seeding activity (FRET positivity) after TauA immunopurification of fibrils spiked into 1 ml control CSF in assay [1] and in assay [2] was 100 attomolar in each case.

These data come from patent US20240043483A1, “TAU BIOSENSOR CELL LINES” (THE BOARD OF REGENTS OF THE UNIVERSITY OF TEXAS SYSTEM, priority 2020, published 2024).
